The assay deals with NiV-RBP ectodomain homotetramer (Nipah virus, Malaysia (deposit 8K3C …, UniProt Q9IH62)). Kind of assay: cryo-EM structure. Conditions: both partners purified.
NiV-RBP ectodomain homotetramer (Nipah virus, Malaysia, sequence (Q9IH62 whole entry, looked up, the tested form may be a part): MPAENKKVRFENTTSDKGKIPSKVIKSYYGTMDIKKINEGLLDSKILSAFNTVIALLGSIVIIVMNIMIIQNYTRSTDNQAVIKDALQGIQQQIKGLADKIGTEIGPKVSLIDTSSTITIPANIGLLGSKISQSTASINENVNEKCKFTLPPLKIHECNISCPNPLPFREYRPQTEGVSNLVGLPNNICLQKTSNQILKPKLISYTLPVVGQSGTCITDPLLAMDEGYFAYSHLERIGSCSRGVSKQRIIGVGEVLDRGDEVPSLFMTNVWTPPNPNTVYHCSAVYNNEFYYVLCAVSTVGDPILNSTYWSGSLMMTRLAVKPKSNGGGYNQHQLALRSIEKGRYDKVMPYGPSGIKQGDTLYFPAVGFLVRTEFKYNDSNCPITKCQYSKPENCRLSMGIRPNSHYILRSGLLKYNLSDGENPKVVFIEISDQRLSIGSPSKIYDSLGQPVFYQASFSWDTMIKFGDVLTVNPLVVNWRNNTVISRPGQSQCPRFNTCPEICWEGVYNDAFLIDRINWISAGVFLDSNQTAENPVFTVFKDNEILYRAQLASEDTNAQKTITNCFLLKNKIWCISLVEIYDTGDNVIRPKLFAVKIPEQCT

B1: 41-6 Fab fragment (Fab, V domains shown)
VH: EVQLVQSGGGLVQPGGSLRLSCAASGFTVSSNYMSWVRQAPGKGLEWVSAISGSGGSTYYADSVKGRFTISRDNSKNTLYLQMNSLRAEDTAVYYCARDREDIVVVPAPRGYYYYYYMDVWGQGTTVTVSS
VL: QSVVTQPPSVSAAPGQKVTISCSGSSSNIGTNHLSWYQQVPGTAPKLLIYDNNKRPSGIPDRFSGSKSGTSASLAISGLQSEDEADYYCATWDDSLHAWVFGGGTKLTVL
The stoichiometry N is the number of molecules, sites or subunits per partner or assembly. As for B1, the “stoichiometry N” value turned out to be 3.

(Values after article PMC10998907 (Nature Communications, 2024).)
